The values below come from paper PMC10793455 (bioRxiv, 2023).

Experiment [1] addresses T1, F-actin (rabbit skeletal muscle actin filaments) (rabbit, UniProt P68135 1-377, methylated His73 (His73me)). Kind of experiment: fluorescence polarisation.
In experiment [2] the target is T1, F-actin (rabbit skeletal muscle actin …). Kind of experiment: cryo-EM structure.
For experiment [3] the target is unchanged. Kind of experiment: fluorescence polarisation. The source holds these as a separate data set.
Experiment [4] shares this target. Kind of experiment: other fluorescence titration.
Experiment [5] addresses Alexa-488 labeled F-actin (rabbit skeletal muscle actin) (rabbit, UniProt P68135 1-377). Kind of experiment: single-molecule TIRF microscopy.
Experiment [6] deals with T1, F-actin (rabbit skeletal muscle actin …). Kind of experiment: fluorescence polarisation. This is another data set of the same source.

B1: FM-SipAC-ΔArm2 (SipA residues 425–658 labeled with fluorescein maleimide) (domain or fragment)
chain: TGETTSFDEVDGVTSKSIIGKPVQATVHGVDDNKQQSQTAEIVNVKPLASQLAGVENVKTDTLQSDTTVITGNKAGTTDNDNSQTDKTGPFSGLKFKQNSFLSTVPSVTNMHSMHFDARETFLGVIRKALEPDTSTPFPVRRAFDGLRAEILPNDTIKSAALKAQCSDIDKHPELKAKMETLKEVITHHPQKEKLAEIALQFAREAGLTRLKGETDYVLSNVLDGLIGDGSWRA
modifications: fluorescein maleimide (FM) label
In experiment [1], B1 yielded a dissociation constant Kd of 120 nM.

B2: SipAC (SipA residues 425–685), unlabeled (domain or fragment)
chain: TGETTSFDEVDGVTSKSIIGKPVQATVHGVDDNKQQSQTAEIVNVKPLASQLAGVENVKTDTLQSDTTVITGNKAGTTDNDNSQTDKTGPFSGLKFKQNSFLSTVPSVTNMHSMHFDARETFLGVIRKALEPDTSTPFPVRRAFDGLRAEILPNDTIKSAALKAQCSDIDKHPELKAKMETLKEVITHHPQKEKLAEIALQFAREAGLTRLKGETDYVLSNVLDGLIGDGSWRAGPAYESYLNKPGVDRVITTVDGLHMQR
Take B2: the “stoichiometry N” value in experiment [2] amounted to 0.5 SipAC per actin subunit. For the same molecule, the dissociation constant Kd was found to be 5 nM in experiment [3] and 0.18 nM in experiment [4].

B3: Alexa-647-SipAC (SipA residues 425–685 labeled with Alexa-647) (domain or fragment)
chain: TGETTSFDEVDGVTSKSIIGKPVQATVHGVDDNKQQSQTAEIVNVKPLASQLAGVENVKTDTLQSDTTVITGNKAGTTDNDNSQTDKTGPFSGLKFKQNSFLSTVPSVTNMHSMHFDARETFLGVIRKALEPDTSTPFPVRRAFDGLRAEILPNDTIKSAALKAQCSDIDKHPELKAKMETLKEVITHHPQKEKLAEIALQFAREAGLTRLKGETDYVLSNVLDGLIGDGSWRAGPAYESYLNKPGVDRVITTVDGLHMQR
modifications: Alexa-647 label
Molecule B3 had a Kd in experiment [5] of 0.1 nM.

B4: FM-SipAC (SipA residues 425–685 labeled with fluorescein maleimide) (domain or fragment)
chain: TGETTSFDEVDGVTSKSIIGKPVQATVHGVDDNKQQSQTAEIVNVKPLASQLAGVENVKTDTLQSDTTVITGNKAGTTDNDNSQTDKTGPFSGLKFKQNSFLSTVPSVTNMHSMHFDARETFLGVIRKALEPDTSTPFPVRRAFDGLRAEILPNDTIKSAALKAQCSDIDKHPELKAKMETLKEVITHHPQKEKLAEIALQFAREAGLTRLKGETDYVLSNVLDGLIGDGSWRAGPAYESYLNKPGVDRVITTVDGLHMQR
modifications: fluorescein maleimide (FM) label
B4: in experiment [6], the equilibrium dissociation constant (Kd) was approximately 0.9 nM.

B5: SipAC-Core (SipA residues 512–658), unlabeled (domain or fragment)
chain: TGPFSGLKFKQNSFLSTVPSVTNMHSMHFDARETFLGVIRKALEPDTSTPFPVRRAFDGLRAEILPNDTIKSAALKAQCSDIDKHPELKAKMETLKEVITHHPQKEKLAEIALQFAREAGLTRLKGETDYVLSNVLDGLIGDGSWRA
In experiment [4], B5 showed a Kd of 81 nM.
